For series [1], the target named is T1, GdmF (Streptomyces hygroscopicus, UniProt Q84G21).
T1 construct: full-length GdmF, N-terminal histidine hexamer
In words: microscale thermophoresis. In kind it is binding.

The target in series [2] is T1, GdmF. In words: X-ray crystal structure (cleaved group from pantetheine thioesters). It is filed as binding.
Series [3] deals with T1, GdmF. The series can be described thus: X-ray crystal structure (cleaved group from SNAC thioesters). In kind it is binding.
Substrate in series [4]: CC(=O)SCCNC(=O)CCNC(=O)[C@H](O)C(C)(C)CO
In words: purified protein, by the assay type. Particulars: pH 7.5; 22.0 °C. More on the design: Steady-state amide formation, thiol release from thioesters monitored with DTNB at 405 nm, 22 °C; kcat: unit: s^-1. The procedure:
(§1) The enzymatic activity of ShGdmF was measured by monitoring the release of free thiols with 5,5’-dithio-bis(2-nitrobenzoic acid) (DTNB) at 405 nm in 100 mM sodium phosphate buffer, pH 7.5. 2 µM ShGdmF was pre-incubated with 2 mM aminophenol 32 or 33 and 100 µM DTNB at 22 °C for 5 min in a 96-well plate before increasing concentrations of thioester 11a-c or 13a-c were added to each well. Measurements were performed using a Multiskan FC Microplate Photometer (Thermo Fisher Scientific) at 22 °C. Each measurement was performed in triplicate. […] The enzyme is able to catalyze the amide synthesis of SNAC and pantetheine thioesters directly in vitro and in the absence of the cellular environment (Fig. 6e + 6f). The kinetic parameters KM of GdmF for substrate conversion range from submillimolar to millimolar at maximum rates (kcat) of 0.001 to 0.02 s^−1. […] For the SNAC thioesters, an increase in kcat/KM with increasing chain length was observed, whereas in the case of the pantetheine thioesters, a decrease in catalytic efficiency with longer acyl substrates was observed. In terms of kcat values, the activity of GdmF is similar to that of the related MsNAT.

Substrate in series [5]: CC/C=C/C(=O)SCCNC(=O)CCNC(=O)[C@H](O)C(C)(C)CO
In words: purified protein, by the assay type. Further details: Steady-state amide formation, thiol release from thioesters monitored with DTNB at 405 nm, 22 °C; kcat: unit: s^-1. Particulars: pH 7.5; 22.0 °C. The procedure: as §1

Substrate in series [6]: C/C=C(\C)C(=O)SCCNC(C)=O
The series can be described thus: purified protein, by the assay type. Particulars: pH 7.5; 22.0 °C. More on the design: Steady-state amide formation, thiol release from thioesters monitored with DTNB at 405 nm, 22 °C; kcat: unit: s^-1. The procedure: as §1

Substrate in series [7]: C/C=C/C(=O)SCCNC(C)=O
The series can be described thus: purified protein, by the assay type. More on the design: Steady-state amide formation, thiol release from thioesters monitored with DTNB at 405 nm, 22 °C; kcat: unit: s^-1. The following applies: pH 7.5; 22.0 °C. The procedure: as §1

Substrate in series [8]: CC(=O)SCCNC(=O)CCNC(=O)[C@H](O)C(C)(C)CO
In words: purified protein, by the assay type. Further details: Steady-state amide formation, thiol release from thioesters monitored with DTNB at 405 nm, 22 °C; kcat: unit: s^-1. The following applies: pH 7.5; 22.0 °C. The procedure:
as §1
This is another data set of the same source.

Substrate in series [9]: CC/C=C/C(=O)SCCNC(=O)CCNC(=O)[C@H](O)C(C)(C)CO
In words: purified protein, by the assay type. More on the design: Steady-state amide formation, thiol release from thioesters monitored with DTNB at 405 nm, 22 °C; kcat: unit: s^-1. The following applies: pH 7.5; 22.0 °C. The procedure:
as §1
The source holds these as a separate data set.

Substrate in series [10]: C/C=C(\C)C(=O)SCCNC(C)=O
The series can be described thus: purified protein, by the assay type. More on the design: Steady-state amide formation, thiol release from thioesters monitored with DTNB at 405 nm, 22 °C; kcat: unit: s^-1. The following applies: pH 7.5; 22.0 °C. The procedure: as §1
The source holds these as a separate data set.

Substrate in series [11]: C/C=C/C(=O)SCCNC(C)=O
In words: purified protein, by the assay type. More on the design: Steady-state amide formation, thiol release from thioesters monitored with DTNB at 405 nm, 22 °C; kcat: unit: s^-1. Particulars: pH 7.5; 22.0 °C. The procedure:
as §1
This is another data set of the same source.

In the case of `C/C=C(\C)C(=O)SCCNC(C)=O` [11b, SNAC ester 11b], the equilibrium dissociation constant (Kd) (as a rule, the constant that tells how readily two partners part at equilibrium) in series [1] came out at 1160 µM.
For `CC(C)(CO)[C@@H](O)C(=O)NCCC(=O)NCCS` [pantetheine], the “X-ray crystal structure (cleaved group from pantetheine thioesters)” value in [2] was “Crystal structure of GdmF with bound pantetheine, and (b) N-acetylcysteamine (SNAC) in the active site cleft”.
Turning to `CC(=O)SCCNC(=O)CCNC(=O)[C@H](O)C(C)(C)COP(=O)(O)OP(=O)(O)OC[C@H]1O[C@@H](n2cnc3c(N)ncnc32)[C@H](O)[C@@H]1OP(=O)(O)O` [compound 5, acetyl-CoA], the Kd in series [1] was 2960 µM.
With `CC(=O)NCCS` [N-acetylcysteamine], in series [3], the “X-ray crystal structure (cleaved group from SNAC thioesters)” value is given as “we found densities for the cleaved SNAC or pantetheine groups, instead”.

B1: GdmF (Streptomyces hygroscopicus) (protein)
chain: MFDVAKYLRRIGVEGTPPPTLDTLRHLHKRHLMAVPYDNSTAPDRLPASRHLTNVPLDLVFGHVVTEGHGGVCYELNRLFHTLLAELGYDVRMVAAAVRQANGTFGPEREHTFDLVHLDGRTHLVDVGFPGPSYSEPLYLSEEEQHQYGCSYRVTEHDGYRVVERRPKGSDWQPVYRFRPELADPSGWDAVRLDSLDDYAQDSVLAGTTFRSRATDNGKIVLIGRRYFTVEDGVERTKVLVKADEFQDVVDLILAGA
notes: full-length GdmF, N-terminal histidine hexamer
As to B1, the Km (as a rule, the substrate concentration at which the rate is half of its maximum) worked out at 6.4136 ± 2.0704 mM in [4]; 1.1368 ± 0.1369 mM in series [5]; 2.735 ± 0.6103 mM in series [6]; 0.8581 ± 0.2327 mM in [7]; 3.6483 ± 2.8127 mM in series [8]; 8.2677 ± 1.6107 mM in series [9]. In addition, the Km in series [10] was 6.9024 ± 4.1426 mM; in series [11], 1.8651 ± 0.2537 mM. Further, the turnover number (kcat) (usually the number of substrate molecules converted per active site and unit of time at saturation) in [4] is 0.0164 ± 0.0039 s⁻¹; in series [5], 0.0027 ± 0.00013 s⁻¹; in series [6] it was 0.0071 ± 0.0007 s⁻¹; in series [7], 0.0016 ± 0.00019 s⁻¹; in series [8] it was 0.0075 ± 0.0051 s⁻¹; in [9], 0.0084 ± 0.0013 s⁻¹. The kcat came out at 0.012 ± 0.0058 s⁻¹ in series [10] and 0.0032 ± 0.00026 s⁻¹ in [11]. For the same molecule, the kcat/Km (as a rule, the turnover number divided by the Michaelis constant) in [4] worked out at 2.56 M⁻¹ s⁻¹; in series [5], 2.37 M⁻¹ s⁻¹; in series [6], 2.6 M⁻¹ s⁻¹; in [7] it was 1.87 M⁻¹ s⁻¹; in [8], 2.06 M⁻¹ s⁻¹; in [9], 1.02 M⁻¹ s⁻¹. Further, the catalytic efficiency (kcat/Km) in [10] was 1.74 M⁻¹ s⁻¹; in [11], 1.72 M⁻¹ s⁻¹.

Values taken from article PMC11903869, “Structure and function of the geldanamycin amide synthase from Streptomyces hygroscopicus” (Nature Communications, 2025).
